For two molecules, response (normalized fluorescence) and percent less recruited than the wild type results are on record in publication PMC10183829, “Shuffled ATG8 interacting motifs form an ancestral bridge between UFMylation and autophagy” (The EMBO Journal, 2023).

The target of one assay is T1, GST-ATG8A, Q8LEM4.
T1 chain: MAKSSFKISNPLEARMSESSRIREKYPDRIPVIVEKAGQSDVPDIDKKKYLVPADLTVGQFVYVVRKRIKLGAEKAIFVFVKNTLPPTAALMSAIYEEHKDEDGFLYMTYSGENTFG
Description: microscopy-based protein-protein interaction assay (on-bead binding, confocal). The settings on record: chain shown with the change; 1 μM C53 protein; glutathione-sepharose beads with GST-ATG8A; parent: est. 1.0; read off a plot.

Assay [1] deals with GST-GABARAP (human), O95166. Description: microscopy-based on-bead protein-protein interaction assay. The settings on record: remark: other sources report otherwise.
Chain of GST-GABARAP (human), O95166 (O95166 whole entry): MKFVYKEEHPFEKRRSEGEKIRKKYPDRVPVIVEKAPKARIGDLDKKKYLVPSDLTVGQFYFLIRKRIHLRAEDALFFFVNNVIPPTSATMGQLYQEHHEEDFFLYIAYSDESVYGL

B1: mCh-HsC53, Q96JB5 IDWG267WDGI; IDWG292WDGI; IDWG310WDGI (protein)
chain: MEDHQHVPIDIQTSKLLDWLVDRRHCSLKWQSLVLTIREKINAAIQDMPESEEIAQLLSGSYIHYFHCLRILDLLKGTEASTKNIFGRYSSQRMKDWQEIIALYEKDNTYLVELSSLLVRNVNYEIPSLKKQIAKCQQLQQEYSRKEEECQAGAAEMREQFYHSCKQYGITGENVRGELLALVKDLPSQLAEIGAAAQQSLGEAIDVYQASVGFVCESPTEQVLPMLRFVQKRGNSTVYEWRTGTEPSVVERPHLEELPEQVAEDAWDGIDFGVEAVSEGTDSGISAEAAGWDGIIFPESDSKDPGGDGWDGIDDAVALQITVLEAGTQAPEGVARGPDALTLLEYTETRNQFLDELMELEIFLAQRAVELSEEADVLSVSQFQLAPAILQGQTKEKMVTMVSVLEDLIGKLTSLQLQHLFMILASPRYVDRVTEFLQQKLKQSQLLALKKELMVQKQQEALEEQAALEPKLDLLLEKTKELQKLIEADISKRYSGRPVNLMGTSL
For B1, the response (normalized fluorescence) with GST-ATG8A, Q8LEM4 was 1.2.

B2: mCh-HsC53^sAIM (W269A, W294A, W312A), Q96JB5 1-506 (natural protein)
chain: MEDHQHVPIDIQTSKLLDWLVDRRHCSLKWQSLVLTIREKINAAIQDMPESEEIAQLLSGSYIHYFHCLRILDLLKGTEASTKNIFGRYSSQRMKDWQEIIALYEKDNTYLVELSSLLVRNVNYEIPSLKKQIAKCQQLQQEYSRKEEECQAGAAEMREQFYHSCKQYGITGENVRGELLALVKDLPSQLAEIGAAAQQSLGEAIDVYQASVGFVCESPTEQVLPMLRFVQKRGNSTVYEWRTGTEPSVVERPHLEELPEQVAEDAIDAGDFGVEAVSEGTDSGISAEAAGIDAGIFPESDSKDPGGDGIDAGDDAVALQITVLEAGTQAPEGVARGPDALTLLEYTETRNQFLDELMELEIFLAQRAVELSEEADVLSVSQFQLAPAILQGQTKEKMVTMVSVLEDLIGKLTSLQLQHLFMILASPRYVDRVTEFLQQKLKQSQLLALKKELMVQKQQEALEEQAALEPKLDLLLEKTKELQKLIEADISKRYSGRPVNLMGTSL
The molecule B2 returned a percent less recruited than the wild type in assay [1] of 78%.
